Biological target: T1, IpgC (UniProt P0A2U4 1-155, limits assumed)
T1 construct: Co-expressed with Rhavi-IpaB in E. coli from pETDuet; also called chaperone IpgC
Experiment: co-expression in E. coli; chaperone retained with the His-tagged fusion on Ni-NTA until the detergent wash
Procedure: DNA fragments encoding of His-SseB and SseA or His-IpaB and IpgC were synthesized and cloned into a pETDuet vector containing Rhavi by restriction enzyme digestion and ligation. Sequence-confirmed plasmids were transformed E. coli T7 shuffle express cells and transformants containing the relevant cloned proteins were grown to OD600=1 at 25° C., and protein expression was induced with 0.2 mM IPTG at 16° C. overnight. Cells were spun down and pellets were resuspended in lysis buffer (20 mM Tris-HCl, 500 mM NaCl, pH8.0) and then lysed by sonication. Supernatant was loaded over a Ni-NTA column and SseA or IpgC was washed off column with 0.05% LDAO in lysis buffer; proteins Rhavi-SseB and Rhavi-IpaB were eluted in imidazole buffer. Protein-containing elutions were combined, purified over a gel-filtration column for dimer fractions.

T1 sequence (P0A2U4 whole entry): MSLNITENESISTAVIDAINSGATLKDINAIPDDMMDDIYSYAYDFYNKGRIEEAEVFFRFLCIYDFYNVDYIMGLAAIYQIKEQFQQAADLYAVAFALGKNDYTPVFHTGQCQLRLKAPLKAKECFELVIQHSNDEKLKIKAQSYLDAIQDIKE

B1: Rhavi-IpaB (rhizavidin fused to Shigella IpaB) (other)
chain: FDASNFKDFSSIASASSSWQNQSGSTMIIQVDSFGNVSGQYVNRAQGTGCQNSPYPLTGRVNGTFIAFSVGWNNSTENCNSATGWTGYAQVNGNNTEIVTSWNLAYEGGSGPAIEQGQDTFQYVPTTENKSLLKDGGGSSHNVSTTTTGFPLAKILASTELGDNTIQAANDAANKLFSLTIADLTANQNINTTNAHSTSNILIPELKAPKSLNASSQLTLLIGNLIQILGEKSLTALTNKITAWKSQQQARQQKNLEFSDKINTLLSETEGLTRDYEKQINKLKNADSKIKDLENKINQIQTRLSELDPESPEKKKLSREEIQLTIKKDAAVKDRTLIEQKTLSIHSKLTDKSMQLEKEIDSFSAFSNTASAEQLSTQQKSLTGLASVTQLMATFIQLVGKNNEESLKNDLALFQSLQESRKTEMERKSDEYAAEVRKAEELNRVMGCVGKILGALLTIVSVVAAAFSGGASLALAAVGLALMVTDAIVQAATGNSFMEQALNPIMKAVIEPLIKLLSDAFTKMLEGLGVDSKKAKMIGSILGAIAGALVLVAAVVLVATVGKQAAAKLAENIGKIIGKTLTDLIPKFLKNFSSQLDDLITNAVARLNKFLGAAGDEVISKQIISTHLNQAVLLGESVNSATQAGGSVASAVFQNSASTNLADLTLSKYQVEQLSKYISEAIEKFGQLQEVIADLLASMSNSQANRTDVAKAILQQTTA
notes: also called IpaB fused to rhizavidin; Rhavi-IpaB carrier protein
Does B1 bind?
Result: binds
